One molecule from US20250051458A1, “Methods for Treating Neurodegeneration Targeting IGF1/IGF1R” (The Schepens Eye Research Institute, Inc., priority 2021, published 2025) can be followed below.

Test [1] has as its system microglial cultures isolated from the retina and brain or the BV2 cells. Description: COX2 immunostaining in LPS-treated microglial cultures (retina, brain, BV2 cells). It counts as cell-based, mouse. To be noted: IGFBPL1 added 6 hr after LPS. As to the method: For primary retinal microglia isolation, microglia cells were isolated from mice retina using magnetic CD11b microbead (BD, 558013). The purification protocol was following manufacture's instructions. Briefly, the papain dissociated retinal cells were resuspended into diluted BD IMag™ Buffer (BD, Cat. No. 552362). After 6-8 mins washing at 300 g, 50 ul of magnetic CD11b microbeads were added for every 10^7 total cells and then incubated for 30 mins at 6-12° C. Then bring the BD IMag-particle labeling volume up to 1-8×10^7 cells/ml with 1×BD IMag™ buffer, and immediately place the tube on the Cell Separation Magnet (BD, Cat. No. 552311). Carefully aspirate off the supernatant after 6-8 minutes incubation at room temperature, and then repeat two times washing. The positive fractions left in the tube were then collected for culture. Around 3000 cells per well were seeded in 8-well Nunc® Lab-Tek™ II Chamber Slide™ (Thermo Scientific, Cat. No. 154534PK). The isolated microglial cells were cultured at 37° C. with 5% C02 in DMEM with 10% FBS and 50 ng/ml rmCSF1 (PeproTech, Cat. No. 315-02).
For primary mouse brain microglia isolation, we optimized our protocol based previously reported protocol^2. First step was to collect brain after perfusing mice with saline. […]

The test system of test [2] is Igf-1r conditional knock out on microglia mice. Description: Microbead-induced glaucoma in mice with Igf-1r specific knock out on microglia. Format: in vivo, mouse. As to the method:
Adult (10-12 weeks old) male and female C57BL/6J (B6) (The Jackson Laboratory, 000664), Cx3cr1^GFP (The Jackson Laboratory, 005582), DBA/2J mice (The Jackson Laboratory, 000671) Igf1r^(lax) inducible knockout mice (The Jackson Laboratory, 012251) as well as Cx3cr1^tm2.1(cre/ERT2) mice were obtained from the Jackson Laboratory. Igf1r^(lax) mice were crossed with Cx3cr1^tm2.1(cre/ERT2) mice to generated Igf-1r specific knock out on microglia after 3 consecutive days injection of 100 mg/kg tamoxifen to mice. IGFBPL1 deficiency mice at a C57BL/6J genetic background (Knockout Mouse Project Repository, University of California at Davis) were used in following experiments. Mice of both genders were randomized into control and experimental groups. All experimental procedures and use of animals were approved and monitored by the Institute's Animal Care Committee and conform to the standards of the National Institute of Health and the Association for Research in Vision and Ophthalmology.
Elevated IOP was induced unilaterally in adult mice (10-12 weeks old) as described previously^21. […] Antibiotic ointment will be applied topically on the cornea after the injection, and then leave the operated mice to recover on a warm pad and monitored every 15 minutes until awake and fully sternal. […]

B1: IGFBPL1: insulin-like growth factor binding protein like protein 1; recombinant protein (R&D system, 4130-BL) (protein)
chain: LGLRDAGRRHPECSPCQQDRCPAPSPCPAPWISARDECGCCARCLGAEGASCGGPVGSRCGPGLVCASRASGTAPEGTGLCVCAQRGAVCGSDGRSYSSICALRLRARHAPRAHHGHLHKARDGPCEFAPVVLMPPRDIHNVTGTQVFLSCEVKAVPTPVITWKKVKHSPEGTEGLEELPGDHVNIAVQVRGGPSDHETTSWILINPLRKEDEGVYHCHAANAIGEAQSHGTVTVLDLNRYKSLYSSVPGDLL
Turning to B1, in test [1], the “LPS-induced COX2 upregulation” value is recorded as “suppressed”. Further, the “pSTR amplitude and RGCs (neuroprotective effect)” value in test [2] (IGFBPL1 at day 3, 10 and 17 post microbeads-induced glaucoma, IGF-1R knocked out on microglia) is given as “neuroprotective effects diminished”. Further, the “Contrast sensitivity (CS) and visual acuity (VA)” value in test [2] (Igf-1r−/− mice with MB induced glaucoma) is “very limited protective capacity”.
